B1: TBC1D10A (parent)
chain: WCLVQICEKYLPGYYSEKLEAIQL

Variants of: B1
Assay: protein stability index of a GFP-peptide fusion (GPS, HEK-293T) (PSI 1-6); higher = more stable
Conditions: c terminus: a fixed tail appended
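Note: lentivirally expressed fusions sorted by FACS into six bins by GFP to DsRed ratio, PSI derived from sequencing read proportions per bin multiplied by bin number.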

Row | Variant | protein stability index
1 | WCNVQICEKYLPGYYSEKLEAIQL [L3N] | 1.88
2 | WCMVQICEKYLPGYYSEKLEAIQL [L3M] | 2.45
3 | WCCVQICEKYLPGYYSEKLEAIQL [L3C] | 3.05
4 | WCHVQICEKYLPGYYSEKLEAIQL [L3H] | 1.87
5 | WCTVQICEKYLPGYYSEKLEAIQL [L3T] | 4.55
6 | WCSVQICEKYLPGYYSEKLEAIQL [L3S] | 1.88
7 | WCGVQICEKYLPGYYSEKLEAIQL [L3G] | 3.3
8 | WCDVQICEKYLPGYYSEKLEAIQL [L3D] | 1.29
9 | WCPVQICEKYLPGYYSEKLEAIQL [L3P] | 1.5
10 | WCWVQICEKYLPGYYSEKLEAIQL [L3W] | 1.02
11 | WCLVQICEFYLPGYYSEKLEAIQL [K9F] | 3.33
12 | WCLVQICEHYLPGYYSEKLEAIQL [K9H] | 2.65
13 | WCLVQICECYLPGYYSEKLEAIQL [K9C] | 4.4
14 | WCLVQICEIYLPGYYSEKLEAIQL [K9I] | 3.29
15 | WCLVQICEPYLPGYYSEKLEAIQL [K9P] | 2.17
16 | WCLVQICETYLPGYYSEKLEAIQL [K9T] | 3.21
17 | WCLVQICEAYLPGYYSEKLEAIQL [K9A] | 1.11
18 | WCLVFICEKYLPGYYSEKLEAIQL [Q5F] | 2.92
19 | WCLVMICEKYLPGYYSEKLEAIQL [Q5M] | 2.16
20 | WCLVKICEKYLPGYYSEKLEAIQL [Q5K] | 1.71
21 | WCLVLICEKYLPGYYSEKLEAIQL [Q5L] | 3.52
22 | WCLVPICEKYLPGYYSEKLEAIQL [Q5P] | 2.69
23 | WCLVGICEKYLPGYYSEKLEAIQL [Q5G] | 3.13
24 | WCLVSICEKYLPGYYSEKLEAIQL [Q5S] | 2.72

Row | Variant | protein stability index
25 | WCLVVICEKYLPGYYSEKLEAIQL [Q5V] | 4.85
26 | WCLVQICEKYLSGYYSEKLEAIQL [P12S] | 3.84
27 | WCLVQICEKYLMGYYSEKLEAIQL [P12M] | 1.77
28 | WCLVQICEKYLTGYYSEKLEAIQL [P12T] | 1.62
29 | WCLVQICEKYLNGYYSEKLEAIQL [P12N] | 4.27
30 | WCLVQICEKYLKGYYSEKLEAIQL [P12K] | 2.12
31 | WCLVQICEKYLIGYYSEKLEAIQL [P12I] | 2.32
32 | WCLVQICEKYLWGYYSEKLEAIQL [P12W] | 2.32
33 | WCLVQICEKYLYGYYSEKLEAIQL [P12Y] | 2.66
34 | WCLVQICKKYLPGYYSEKLEAIQL [E8K] | 4.48
35 | WCLVQICYKYLPGYYSEKLEAIQL [E8Y] | 3.51
36 | WCLVQICLKYLPGYYSEKLEAIQL [E8L] | 4.41
37 | WCLVQICMKYLPGYYSEKLEAIQL [E8M] | 2.81
38 | WCLVQICAKYLPGYYSEKLEAIQL [E8A] | 2.95
39 | WCLVQICCKYLPGYYSEKLEAIQL [E8C] | 2.85
40 | WCLVQICTKYLPGYYSEKLEAIQL [E8T] | 2.34
41 | WCLVQICQKYLPGYYSEKLEAIQL [E8Q] | 4.87
42 | WCLVQICEKYSPGYYSEKLEAIQL [L11S] | 2.68
43 | WCLVQICEKYPPGYYSEKLEAIQL [L11P] | 3.62
44 | WCLVQICEKYCPGYYSEKLEAIQL [L11C] | 2.72
45 | WCLVQICEKYDPGYYSEKLEAIQL [L11D] | 2.91
46 | WCLVQICEKYIPGYYSEKLEAIQL [L11I] | 3.03
47 | WCLVQICEKYEPGYYSEKLEAIQL [L11E] | 2.65
48 | WCLVQITEKYLPGYYSEKLEAIQL [C7T] | 3.5

Row | Variant | protein stability index
49 | WCLVQILEKYLPGYYSEKLEAIQL [C7L] | 3.68
50 | WCLVQIYEKYLPGYYSEKLEAIQL [C7Y] | 3.39
51 | WCLVQIDEKYLPGYYSEKLEAIQL [C7D] | 2.31
52 | WCLVQIMEKYLPGYYSEKLEAIQL [C7M] | 2.57
53 | WCLVQINEKYLPGYYSEKLEAIQL [C7N] | 3.08
54 | WCLVQIKEKYLPGYYSEKLEAIQL [C7K] | 2.9
55 | WCLVQIREKYLPGYYSEKLEAIQL [C7R] | 3.73
56 | WCLVQICEKMLPGYYSEKLEAIQL [Y10M] | 3.09
57 | WCLVQICEKKLPGYYSEKLEAIQL [Y10K] | 2.62
58 | WCLVQICEKILPGYYSEKLEAIQL [Y10I] | 1.18
59 | WCLVQICEKQLPGYYSEKLEAIQL [Y10Q] | 2.39
60 | WCLVQICEKWLPGYYSEKLEAIQL [Y10W] | 4.21
61 | WCLVQICEKGLPGYYSEKLEAIQL [Y10G] | 4.89
62 | WCLVQICEKVLPGYYSEKLEAIQL [Y10V] | 1.61
63 | WCLVQICEKPLPGYYSEKLEAIQL [Y10P] | 2.35
64 | WCLNQICEKYLPGYYSEKLEAIQL [V4N] | 1.57
65 | WCLLQICEKYLPGYYSEKLEAIQL [V4L] | 2.19
66 | WCLMQICEKYLPGYYSEKLEAIQL [V4M] | 3.23
67 | WCLIQICEKYLPGYYSEKLEAIQL [V4I] | 2.23
68 | WCLPQICEKYLPGYYSEKLEAIQL [V4P] | 1.73
69 | WCLHQICEKYLPGYYSEKLEAIQL [V4H] | 1.59
70 | WCLTQICEKYLPGYYSEKLEAIQL [V4T] | 2.83
71 | WCLQQICEKYLPGYYSEKLEAIQL [V4Q] | 1.48
72 | WCLEQICEKYLPGYYSEKLEAIQL [V4E] | 2.09

Row | Variant | protein stability index
73 | WCLGQICEKYLPGYYSEKLEAIQL [V4G] | 2.45
74 | WCLVQCCEKYLPGYYSEKLEAIQL [I6C] | 3.08
75 | WCLVQKCEKYLPGYYSEKLEAIQL [I6K] | 2.41
76 | WCLVQPCEKYLPGYYSEKLEAIQL [I6P] | 2.45
77 | WCLVQGCEKYLPGYYSEKLEAIQL [I6G] | 1.73
78 | HCLVQICEKYLPGYYSEKLEAIQL [W1H] | 2.83
79 | PCLVQICEKYLPGYYSEKLEAIQL [W1P] | 1.93
80 | TCLVQICEKYLPGYYSEKLEAIQL [W1T] | 3.45
81 | VCLVQICEKYLPGYYSEKLEAIQL [W1V] | 2.6
82 | RCLVQICEKYLPGYYSEKLEAIQL [W1R] | 2.22
83 | QCLVQICEKYLPGYYSEKLEAIQL [W1Q] | 1.07
84 | FCLVQICEKYLPGYYSEKLEAIQL [W1F] | 2.61
85 | WNLVQICEKYLPGYYSEKLEAIQL [C2N] | 3.07
86 | WFLVQICEKYLPGYYSEKLEAIQL [C2F] | 1.81
87 | WSLVQICEKYLPGYYSEKLEAIQL [C2S] | 1.67
88 | WPLVQICEKYLPGYYSEKLEAIQL [C2P] | 1.86
89 | WRLVQICEKYLPGYYSEKLEAIQL [C2R] | 3.28
90 | WELVQICEKYLPGYYSEKLEAIQL [C2E] | 1.01
91 | WGLVQICEKYLPGYYSEKLEAIQL [C2G] | 2.79
92 | WCLVQICEKYLPCYYSEKLEAIQL [G13C] | 1.5
93 | WCLVQICEKYLPEYYSEKLEAIQL [G13E] | 3.01
94 | WCLVQICEKYLPAYYSEKLEAIQL [G13A] | 3.16
